According to US20200165324A1 (INTERNATIONAL AIDS VACCINE INITIATIVE, published 2020):

T1: SS-B/La (human, UniProt P05455 1-408, limits assumed)
T1 sequence (looked up): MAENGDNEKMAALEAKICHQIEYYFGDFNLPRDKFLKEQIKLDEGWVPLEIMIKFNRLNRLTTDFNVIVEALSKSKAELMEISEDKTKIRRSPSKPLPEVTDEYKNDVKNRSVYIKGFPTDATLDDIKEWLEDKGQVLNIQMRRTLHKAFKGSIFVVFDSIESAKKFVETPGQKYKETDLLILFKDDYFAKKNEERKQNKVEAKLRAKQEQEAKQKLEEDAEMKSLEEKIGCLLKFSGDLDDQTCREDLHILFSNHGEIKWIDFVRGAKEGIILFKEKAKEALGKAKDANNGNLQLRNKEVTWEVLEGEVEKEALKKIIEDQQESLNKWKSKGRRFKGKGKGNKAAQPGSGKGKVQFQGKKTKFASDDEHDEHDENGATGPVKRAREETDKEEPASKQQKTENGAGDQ

T2: Jo-1 (human, UniProt P12081 1-509, limits assumed)
T2 sequence (looked up): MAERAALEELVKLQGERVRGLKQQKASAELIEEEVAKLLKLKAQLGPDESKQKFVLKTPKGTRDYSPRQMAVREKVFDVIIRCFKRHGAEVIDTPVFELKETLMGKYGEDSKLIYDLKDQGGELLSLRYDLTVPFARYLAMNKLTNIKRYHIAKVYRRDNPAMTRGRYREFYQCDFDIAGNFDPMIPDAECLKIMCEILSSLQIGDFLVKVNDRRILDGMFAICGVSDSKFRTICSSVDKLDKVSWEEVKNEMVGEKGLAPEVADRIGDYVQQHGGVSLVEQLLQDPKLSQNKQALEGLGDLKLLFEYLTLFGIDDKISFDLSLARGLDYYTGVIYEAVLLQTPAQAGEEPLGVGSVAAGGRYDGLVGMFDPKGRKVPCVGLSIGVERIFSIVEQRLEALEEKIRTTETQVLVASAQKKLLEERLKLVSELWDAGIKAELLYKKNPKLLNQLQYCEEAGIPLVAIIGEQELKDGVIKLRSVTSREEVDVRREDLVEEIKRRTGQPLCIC

T3: centromere B (human, UniProt P07199 1-599)
T3 sequence (looked up): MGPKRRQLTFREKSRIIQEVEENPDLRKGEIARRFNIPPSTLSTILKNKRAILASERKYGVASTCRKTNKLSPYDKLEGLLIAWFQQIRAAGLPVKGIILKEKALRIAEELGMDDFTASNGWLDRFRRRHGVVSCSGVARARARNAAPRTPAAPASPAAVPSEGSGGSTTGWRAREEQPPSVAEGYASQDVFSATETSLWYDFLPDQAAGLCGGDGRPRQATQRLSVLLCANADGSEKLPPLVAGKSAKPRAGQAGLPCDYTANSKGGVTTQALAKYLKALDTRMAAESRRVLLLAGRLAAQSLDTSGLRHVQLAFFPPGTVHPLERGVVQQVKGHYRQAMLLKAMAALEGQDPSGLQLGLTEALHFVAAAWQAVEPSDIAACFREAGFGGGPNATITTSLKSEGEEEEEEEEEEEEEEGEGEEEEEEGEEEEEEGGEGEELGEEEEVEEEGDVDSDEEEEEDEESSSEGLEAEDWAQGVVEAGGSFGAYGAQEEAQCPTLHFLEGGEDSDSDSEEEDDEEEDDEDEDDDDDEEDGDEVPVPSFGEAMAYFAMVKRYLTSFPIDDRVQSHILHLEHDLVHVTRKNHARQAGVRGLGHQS


Assays:
[1] = molecular target: BG505 N279A; test: cell-based or functional assay
[2] = molecular target: BG505 K282A; test: cell-based or functional assay
[3] = molecular target: BG505 Env on BG505 pseudovirus (HIV isolate BG505); test: cell-based or functional assay
[4] = molecular target: JR-CSF Env on JR-CSF pseudovirus; test: cell-based or functional assay
[5] = molecular target: T1, SS-B/La; test: single autoantigen ELISA (Aesku), cut-off of the manufacturer
Description: (§1) Single antigen ELISA assays for SSA/Ro, SS-B/La, Sm, ribonucleoprotein (RNP), Jo-1, double-stranded DNA, centromere B, and histones were purchased from Aesku Diagnostics (Oakland, Calif.). The 96 wells were separately coated with these eight cellular and nuclear antigens for the qualitative detection of mAbs reactivity. A cut-off calibrator was provided by the manufacturer. The negative control was diluted human serum.

[6] = molecular target: T2, Jo-1; test: as above
Description: as §1

[7] = molecular target: T3, centromere B; test: as above
Description: as §1

[8] = molecular target: BG505 D368R recombinant gp120 protein; test: ELISA on recombinant gp120
[9] = molecular target: T4, BG505 WT recombinant gp120 protein (HIV isolate BG505); test: ELISA on recombinant gp120
T4 construct: also called WT protein

[10] = molecular target: BG505 N279A; test: ELISA, gp120 captured from lysed virions
[11] = molecular target: BG505 K282A; test: ELISA, gp120 captured from lysed virions
[12] = molecular target: BG505 G472A; test: ELISA, gp120 captured from lysed virions
[13] = molecular target: T5, JR-CSF gp120 captured from lysed virions (HIV isolate JR-CSF, UniProt P20871 32-503); test: ELISA, gp120 captured from lysed virions
T5 construct: gp120 from NP40-lysed pseudovirus, captured by an anti-C5 gp120 antibody

[14] = molecular target: T6, BG505 SOSIP.664 gp140 trimer (HIV isolate BG505); test: complex used as bait in flow cytometry sorting
T6 construct: Soluble Env trimer made in HEK293F cells with co-transfected furin (cleaved gp120 and gp41 ectodomain, disulfide-linked); His- and Avi-tagged (biotinylated) versions were also made; also called BG505 SOSIP trimer; BG505 SOSIP.664-His gp140

[15] = molecular target: T6, BG505 SOSIP.664 gp140 trimer; test: single particle negative stain electron microscopy

| Binder | IC50, pseudovirus neutralization [1] [µg/mL] | IC50, pseudovirus neutralization [2] [µg/mL] | IC50, pseudovirus neutralization [3] [µg/mL] | IC50, pseudovirus neutralization [4] [µg/mL] | binding result [5] | binding result [6] | binding result [7] | EC50 (read off the curve) [8] [µg/mL] | EC50 (read off the curve) [9] [µg/mL] | EC50 [10] [µg/mL] | EC50 [11] [µg/mL] | EC50 [12] [µg/mL] | EC50 [13] [µg/mL] | binding result [14] | binding result [15] |
| --- | --- | --- | --- | --- | --- | --- | --- | --- | --- | --- | --- | --- | --- | --- | --- |
| NC-Cow1 (antibody, detected with anti-human IgG; also called d238-P1B4_NC-Cow1; mature NC-Cow1 HC + mature NC-Cow1 LC) VH: QVQLRESGPSLMKPSQTLSLTCTVSGSSLNDKSVGWVRQAPGKALQWLGSVDTSGNTDYNPGLKSRLSITKDNSKSRISLTVTGMTTEDSATYYCITAHQKTNKKECPEDYTYNPRCPQQYGWSDCDCMGDRFGGYCRQDGCSNYIHRSTYEWYVSAWGQGLLVTVSS VL: SYELTQPSSVSGSLGQRVSVTCSGSSSNVGNGYVSWYQLIPGSAPRTIIYGDTSRASGVPERFSGSRSGNTATLTISSLQAEDEADFFCASPDDSSSNAVFGSGTTLTVL | 0.012 | 0.02 | 0.006 | 0.821 | no binding (tested: 100 µg/ml) | no binding (tested: 100 µg/ml) | no binding (tested: 100 µg/ml) | ~0.04 | ~0.06 | 0.11 | 1.18 | 0.37 | 0.075 | binds | – |
| NC-Cow2 Fab (Fab, Fab used for negative stain electron microscopy; also called cow Fab NC-Cow2) VH: KVQLRESGPSLVKPSQTLSLTCMVSGSSLSDKAVGWVRQAPGKALEWLGIISAGGNRGYNSGLRSRLTISKDNSKNEVSLRVRSVTTEDSATYFCGTVHQKTQRKPICPDGYSDDSTLRYYSRCSDRDCWRCTGTTYYDTCQCGTYTWIDTHELHVDAWGQGLLVTVSS VL: QAVLNQPSSVSGSLGQRVSITCSGSSSNVGNGYVSWYQLIPGSAPRTLIYGDTSRASGVPDRFSGSRSGNTATLTISSLQAEDEADYFCASAEDSSSNAVFGSGTTLTVL | – | – | – | – | – | – | – | – | – | – | – | – | – | – | binds |
| NC-Cow1 Fab (Fab, Fab used for negative stain electron microscopy; also called cow Fab NC-Cow1) VH: QVQLRESGPSLMKPSQTLSLTCTVSGSSLNDKSVGWVRQAPGKALQWLGSVDTSGNTDYNPGLKSRLSITKDNSKSRISLTVTGMTTEDSATYYCITAHQKTNKKECPEDYTYNPRCPQQYGWSDCDCMGDRFGGYCRQDGCSNYIHRSTYEWYVSAWGQGLLVTVSS VL: SYELTQPSSVSGSLGQRVSVTCSGSSSNVGNGYVSWYQLIPGSAPRTIIYGDTSRASGVPERFSGSRSGNTATLTISSLQAEDEADFFCASPDDSSSNAVFGSGTTLTVL | – | – | – | – | – | – | – | – | – | – | – | – | – | – | binds |
